The text below walks through data of patent publication US12674174B2, “Protoporphyrinogen oxidase (PPO) resistance plant” (PLANTARC BIO LTD., priority 2022, dated 2026).

“Also recorded” adds a separate entry of the source.

The test system of this experiment is Arabidopsis plants. The settings on record: for High concentration herbicide tolerance: Table 1; for High concentration herbicide tolerance / Herbicide tolerance: yes/no; for Herbicide tolerance: Table 2, FIG. 6C legend: Star 1.25 kg/hectare; for rank among fungal isolated-PPO genes for growth in the presence of Strike, Star, Goal and Aurora: Strike 2.5, Star 1.25, Goal 1.15, Aurora 1.0 kg/hectare; for herbicides against which tolerance was shown: FIG. 3C, Strike, Star, Goal, Aurora tested.

B1: SEQ ID NO: 97: PPO from Rhodotorula sp. Protein. (protein, listed as Rhodotorula sp.)
chain: MQSYSGNALARQSVPIKPIRRRTPRLNLIRSLPSPRFFVTSPSSSQRHDHPYHTLAILGGGLSGLSTAHYFLRTLSPSLRDQTRIVVLEKEERVGGWCRAVRIQNGRRLGENEKPEGTEDLLVFETGPRSVRPVGLLGWLTIEMAHELGLTPSIVTVPKSAPSARNRFIYTGHRSSTSISPILKAALPTIPSALLEPFRPRSPLHDDPSGLADESVDSFIARRFGRRLADELASAGIHGIYAGDTRRLSVRAVLPALWELEKEWGSVVIGALFGSFARRRGWKKNSPWRMRQQAETEEMERVKERIRAKGGEALVEDMEKASVWGVKGGLQVVTETLREKLEAEGVEFWMGEKGKVEHVEKVDGGWQIRTSSGALDASQLVTTIPQLLPSSLAPPALPATTVSVVNLAFEKPAPGSPPLHPAGFGYLIPRTVPSSLNPHRALGVIFDSDVMPDVDSSSSLGLTKLSLLLGGSYWLDRHPPPQPSHDDLVNAALETLRLHFPDRPIPKPVHAFTHTHVNCIPQVPPGFMPSFRAFGDRLREAGNVAVVGGGFAAVGVNGCVKAAWEVGSAMAQAVNAQAGGKEGEGEEKVREAVARTVKTGTEMWEL
In the case of B1, the “High concentration herbicide tolerance” value is “yes” and the Herbicide tolerance result is reported as “yes”.

B2: SEQ ID NO: 115: PPO from Rhodotorula sp. fused to cTP. Chimeric Protein; cloned from SEQ ID NO: 97 (protein, listed as Rhodotorula sp.)
chain: MELSLLRPTTQSLLPSFSKPNLRLNVYKPLRLRCSVAGGMQSYSGNALARQSVPIKPIRRRTPRLNLIRSLPSPRFFVTSPSSSQRHDHPYHTLAILGGGLSGLSTAHYFLRTLSPSLRDQTRIVVLEKEERVGGWCRAVRIQNGRRLGENEKPEGTEDLLVFETGPRSVRPVGLLGWLTIEMAHELGLTPSIVTVPKSAPSARNRFIYTGHRSSTSISPILKAALPTIPSALLEPFRPRSPLHDDPSGLADESVDSFIARRFGRRLADELASAGIHGIYAGDTRRLSVRAVLPALWELEKEWGSVVIGALFGSFARRRGWKKNSPWRMRQQAETEEMERVKERIRAKGGEALVEDMEKASVWGVKGGLQVVTETLREKLEAEGVEFWMGEKGKVEHVEKVDGGWQIRTSSGALDASQLVTTIPQLLPSSLAPPALPATTVSVVNLAFEKPAPGSPPLHPAGFGYLIPRTVPSSLNPHRALGVIFDSDVMPDVDSSSSLGLTKLSLLLGGSYWLDRHPPPQPSHDDLVNAALETLRLHFPDRPIPKPVHAFTHTHVNCIPQVPPGFMPSFRAFGDRLREAGNVAVVGGGFAAVGVNGCVKAAWEVGSAMAQAVNAQAGGKEGEGEEKVREAVARTVKTGTEMWEL
Consider B2, for which the “rank among fungal isolated-PPO genes for growth in the presence of Strike, Star, Goal and Aurora” value was “top 3; also recorded: top 2”.

B3: SEQ ID NO: 103: Nicotiana tabacum protoporphyrinogen oxidase, mitochondrial, NP_001312887.1 (protein, listed as Nicotiana tabacum)
chain: MAPSAGEDKHSSAKRVAVIGAGVSGLAAAYKLKIHGLNVTVFEAEGKAGGKLRSVSQDGLIWDEGANTMTESEGDVTFLIDSLGLREKQQFPLSQNKRYIARNGTPVLLPSNPIDLIKSNFLSTGSKLQMLLEPILWKNKKLSQVSDSHESVSGFFQRHFGKEVVDYLIDPFVAGTCGGDPDSLSMHHSFPELWNLEKRFGSVILGAIRSKLSPKNEKKQGPPKTSANKKRQRGSFSFLGGMQTLTDAICKDLREDELRLNSRVLELSCSCTEDSAIDSWSIISASPHKRQSEEESFDAVIMTAPLCDVKSMKIAKRGNPFLLNFIPEVDYVPLSVVITTFKRENVKYPLEGFGVLVPSKEQQHGLKTLGTLFSSMMFPDRAPNNVYLYTTFVGGSRNRELAKASRTELKEIVTSDLKQLLGAEGEPTYVNHLYWSKAFPLYGHNYDSVLDAIDKMEKNLPGLFYAGNHRGGLSVGKALSSGCNAADLVISYLESVSTDSKRHC
For B3, the “High concentration herbicide tolerance” value is “no”.

B4: SEQ ID NO: 94: PPO from Penicillium sp. Protein. (protein, listed as Penicillium sp.)
chain: MRLLTASKGLRSPQKPLISAIRCQHRSYNAAVIGGGITGLTAAWQLIQDRECSSVTIYEKSRRLGGWLQSETIPVEGGEVVFEYGPRTLRSAMPASLPLLYLVSNLGLFDELITTSKRSPAALNRYIYYPDHLVRLPTPDPDLSLMENARNIFRTITTEPLFEGFITGLLSEPNKPARPQEEWAIDESLAEFITRRFNRKIADNLVSAVMHGIYADNIDEMSAQAIMGPLRNLEDGGILFGLLIKSIMGKKTRSMDDFLAVDAVYKTPETMQRLDEINRVVKTASTFTFKRGTQQLVEGLTRALRASEKVRLVMDADILALDPPANRGHKLKIYTGIRGEESFDHVISAISAPAMARILDPQGQVKIDCDPEDEYRALWNSKKARHPKPNIGTVSGLHFFRHATTVMVVNLYYKTPNLLPVDGFGYLIPRSIPYEQNPECGLGVIFASASSSGESPVAPYPKVSQDSAPGTKITIMFGGHYWDGWKKQDYPDHKTAVRMAKDMLERHLGITEPPALVRTRLQENAIPKYKPPHIHQIYALSRWAKEEYHNRLVLVGNSFSGVGVGDCVRQGIMAATHGVGRHKLTATPRLESKDWCPWKEYNYQHWDLKGGVPTAPVRLFESDI
In the case of B4, the “High concentration herbicide tolerance” value was “yes” and the Herbicide tolerance result is “yes”.

B5: SEQ ID NO: 114: PPO from Trichoderma sp. fused to cTP. Chimeric Protein; cloned from SEQ ID NO: 96 (protein, listed as Trichoderma sp.)
chain: MELSLLRPTTQSLLPSFSKPNLRLNVYKPLRLRCSVAGGMSLKRADGAAMAFLRLSSAVCGRRRIPAGGLPADANVAVLGGGLTGLTTAYYLAKWLPPTAKITLLEASDRLGGWIKTDRVPVKVGGVEGVVSFERGPRSLSSLNKSTWRFDDLVLWDLALDLGLRVVSPPDKPRYIYYPDHLVPLPPHTSLAAFASEPLVLESLWAGFGYVLRRLFSRKAGVPVQDLSIADWIQHITGSRAVAENLASAMVHGIYGGDIYTLSARSVLDRFYWVHYLPALGPDVRHMALSEQVFMEAMGQDPLIRKLAQQPRGALLNFGEAGMETLPIALADALNGQANVEVKLGAKVTGLEYESETEMMKITTTGQDDSPAEKYHKVISTLPSQHLARITDTLPSLASSHAVSIMTVNIWYPQTNLKPPGFGYLIPLSVPAEQNPERALGVFFDSDVGVRGPDEPAGTKLFVLMGGHYYDKKQPGASVRVPSEEEAIEQAKRVLERHLGIPQSTPCFAMARLASECIPQYVCGHQDTMAAADEDLRDSFDGRLAVAGGSYTKIGAMGALRNGYDIANTVVREDWLTTGLEQLEFPTQFCGVPTERIPVRRFSRR
B5: the “rank among fungal isolated-PPO genes for growth in the presence of Strike, Star, Goal and Aurora” value is listed as “top 3”.

B6: SEQ ID NO: 96: PPO from Trichoderma sp. Protein. (protein, listed as Trichoderma sp.)
chain: MSLKRADGAAMAFLRLSSAVCGRRRIPAGGLPADANVAVLGGGLTGLTTAYYLAKWLPPTAKITLLEASDRLGGWIKTDRVPVKVGGVEGVVSFERGPRSLSSLNKSTWRFDDLVLWDLALDLGLRVVSPPDKPRYIYYPDHLVPLPPHTSLAAFASEPLVLESLWAGFGYVLRRLFSRKAGVPVQDLSIADWIQHITGSRAVAENLASAMVHGIYGGDIYTLSARSVLDRFYWVHYLPALGPDVRHMALSEQVFMEAMGQDPLIRKLAQQPRGALLNFGEAGMETLPIALADALNGQANVEVKLGAKVTGLEYESETEMMKITTTGQDDSPAEKYHKVISTLPSQHLARITDTLPSLASSHAVSIMTVNIWYPQTNLKPPGFGYLIPLSVPAEQNPERALGVFFDSDVGVRGPDEPAGTKLFVLMGGHYYDKKQPGASVRVPSEEEAIEQAKRVLERHLGIPQSTPCFAMARLASECIPQYVCGHQDTMAAADEDLRDSFDGRLAVAGGSYTKIGAMGALRNGYDIANTVVREDWLTTGLEQLEFPTQFCGVPTERIPVRRFSRR
In the case of B6, the “High concentration herbicide tolerance” value is “yes” and the Herbicide tolerance result was “yes”.

B7: SEQ ID NO: 116: PPO from Hesseltinella sp. fused to cTP. Chimeric Protein; cloned from SEQ ID NO: 98 (protein, listed as Hesseltinella sp.)
chain: MELSLLRPTTQSLLPSFSKPNLRLNVYKPLRLRCSVAGGMPRSIVVLGGGISGLSAAYYLSRLVPQAHIRLIESNKRAGGFIKTQQVNDHLIFEAGPRTLRPHGTSGTVLLDMIKDLDLSPLLVNIPKSHPSAQHRYIEYHGQINQLPSGLADMLLHSPPIMDSVITAGMREPFLARASTTKDESLYNFMERRFNEHTALNLMGAMAHGIYAGDAKQLSVHSTFPILAACEQEYGSVVLGMLSGKLSVESPRERQLADACRAKDPEWFKQMQQSSVLGFLPGLGALPSRLTQFLSSQPNVSMQLGETVSRLDGQSSHQIEITTSQGQIYHADHIVSTLPSHALARISMPTTTSLPHLTHNPSADVALVNLAYEKCKVKPGLDGFGFLTPHADTMPPSQFPGLLGMIFDSNSLGVQDQDSNMVRFTAMIGGADWNLAFGSLHDNDAISSKALTMATAALSKYLEIHESPAHYHCRILRQCIPQYLVGHRQRMNELHAALQHSFGHTMSVTGASYLGVSVPDCIKHSRMLIEDLVDTGALGSKQAVITGLEKVTLPMYYKL
Consider B7, for which the “herbicides against which tolerance was shown” value is “tolerances against Goal and Star herbicides only”.

B8: SEQ ID NO: 112: PPO from Penicillium sp. fused to cTP. Chimeric Protein; cloned from SEQ ID NO: 94 (protein, listed as Penicillium sp.)
chain: MELSLLRPTTQSLLPSFSKPNLRLNVYKPLRLRCSVAGGMRLLTASKGLRSPQKPLISAIRCQHRSYNAAVIGGGITGLTAAWQLIQDRECSSVTIYEKSRRLGGWLQSETIPVEGGEVVFEYGPRTLRSAMPASLPLLYLVSNLGLFDELITTSKRSPAALNRYIYYPDHLVRLPTPDPDLSLMENARNIFRTITTEPLFEGFITGLLSEPNKPARPQEEWAIDESLAEFITRRFNRKIADNLVSAVMHGIYADNIDEMSAQAIMGPLRNLEDGGILFGLLIKSIMGKKTRSMDDFLAVDAVYKTPETMQRLDEINRVVKTASTFTFKRGTQQLVEGLTRALRASEKVRLVMDADILALDPPANRGHKLKIYTGIRGEESFDHVISAISAPAMARILDPQGQVKIDCDPEDEYRALWNSKKARHPKPNIGTVSGLHFFRHATTVMVVNLYYKTPNLLPVDGFGYLIPRSIPYEQNPECGLGVIFASASSSGESPVAPYPKVSQDSAPGTKITIMFGGHYWDGWKKQDYPDHKTAVRMAKDMLERHLGITEPPALVRTRLQENAIPKYKPPHIHQIYALSRWAKEEYHNRLVLVGNSFSGVGVGDCVRQGIMAATHGVGRHKLTATPRLESKDWCPWKEYNYQHWDLKGGVPTAPVRLFESDI
Regarding B8, the “herbicides against which tolerance was shown” value is “tolerances against Goal and Star herbicides only”.
